Data reported in the nanobody polyreactivity screen of Harvey et al. (2022).

Test: yeast display, Sf9 membrane polyspecificity reagent, FACS + sequencing; frameworks hold sequencing errors
Summary of the method: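 Sorting gates, low and high (top ~1%), were placed on anti-HA fluorescence to track expression and on streptavidin fluorescence to track reagent binding. A clone's polyreactivity label is taken from the gate it came out of. The reagent was 10% biotinylated, detergent-solubilized Sf9 membrane, applied for 1 hour at 4 °C to galactose-induced yeast display cells.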

| Sequence | polyreactivity (PSR sort gate) |
| --- | --- |
| QVQLVESGGGLVQAGGSLRLSCAASGSTFTVNGMGWYRQAPGKERELVASITWSGGSTYYADSVKGRFTISRDNAKISVYLHMTSLIPEDTAVYYCAADEKLYITGYDYWGQGTQVTVSS | low polyreactivity |
| QVQLVESGGGLVQAGGSLRLSCAASGSTFTVYAMGWYRQAPGKERELVAAITNGGRTYYADSVKGRFTISRDNAKNTVYLQMNSLKPEDTAVYYCAADVYYDDYLYDYWGQGTQVTVSS | high polyreactivity |
| QVQLVESGGGLVQAGGSLRLSCAASGSTFTVYDMGWYRQAPGKERELVAGISRRGSSTYYADSVKGRFTISRDNAKNTVYLQMNSLKPEDTAVYYCAARGAVIRYPDKRYPVRYDYWGQGTQVTVSS | high polyreactivity |
| QVQLVESGGGLVQAGGSLRLSCAASGSTFTWNAMGWYRQAPGKERELVASITWGGGGTYYADSVKGRFTISRDNAKNTVYLQMNSLKPEDTAVYYCAAGLWSPAYRGGYYYWGQGTQVTVSS | low polyreactivity |
| QVQLVESGGGLVQAGGSLRLSCAASGSTFTWYAMGWYRQAPGKERELVADISYGGRSTYYADSVKGRFTISRDNAKNTVYLQMNSLKPEDTAVYYCAAESIPYYRYDYWGQGTQVTVSS | low polyreactivity |
| QVQLVESGGGLVQAGGSLRLSCAASGSTFTYNAMGWYRQAPGKERELVAAISSDGRTYYADSVKGRFTISRDNAKNTVYLQMNSLKPEDTAVYYCAAYFSGLTYGYYVAGYDYWGQGTQVTVSS | low polyreactivity |
| QVQLVESGGGLVQAGGSLRLSCAASGSTFTYNAMGWYRQAPGKERELVAAITGRGGSTYADSVKGRFTISRDNAKNTVYLQMNSLKPEDTAVYYCAARRPYGYRWHTSVPSLDYWGQGTQVTVSS | low polyreactivity |
| QVQLVESGGGLVQAGGSLRLSCAASGSTFTYNAMGWYRQAPGKERELVASISSGTTTYYADSVKGRFTISRDNAKNTVYLQMNSLKPDDTAVYYCNADIYTWFQIGGYQYDYWGQGTQVTVSS | low polyreactivity |
| QVQLVESGGGLVQAGGSLRLSCAASGSTFTYNAMGWYRQAPGKERELVASISSGTTTYYADSVKGRFTISRDNAKNTVYLQMNSLKPEDTAVYYCAALVSPDRGYYSYWYIYDYWGQGTQVTVSS | low polyreactivity |
| QVQLVESGGGLVQAGGSLRLSCAASGSTFTYNDMGWYRPAPGKERELVATIDSTTRTYYADSVKGRFTISRDNAKNSVYLQMNCLKPEDTAVYYCAADLTWAYFYYLFYRYDYWGQGTKVTVSS | low polyreactivity |
| QVQLVESGGGLVQAGGSLRLSCAASGSTFTYYAMGWYRQAPGKERELVAAIDFSGTSTYYADSVKGRFTISRDNAKNTVYLQMNSLQPEDTAVYYCAASQSWYWGGAQDNGEFGYWGQGTQVTVSS | low polyreactivity |
| QVQLVESGGGLVQAGGSLRLSCAASGSTFTYYAMGWYRQAPGKERELVAAISRSGGNTYYADSVKGRFTISRDNAKNTVYLQMNSLKKEDTAVYYCAAYRQVYGFDYWGQGTQVTVSS | high polyreactivity |
| QVQLVESGGGLVQAGGSLRLSCAASGSTFTYYAMGWYRQAPGKERELVAAISRSGGNTYYADSVKGRFTISRDNAKNTVYLQMNSLKPEDTAVYYCAAYRQVYGFDYWGQGTQVTVSS | high polyreactivity |
| QVQLVESGGGLVQAGGSLRLSCAASGSTFTYYAMGWYRQAPGKERELVAAITGRGGRTYYADSVKGRFTISRDNAKNTVYLQMNSLKPEDTAVYYCARYPSSDTYWTKYDYWGQGTQVTVSS | high polyreactivity |
| QVQLVESGGGLVQAGGSLRLSCAASGSTFTYYAMGWYRQAPGKERELVAAITSGGSTYYADSVKGRFTISRDNAKNTVYLQMNSLKPEDTAVYYCNRGSWRYSTMEYWGQGTQVTVSS | high polyreactivity |
| QVQLVESGGGLVQAGGSLRLSCAASGSTFTYYTMGWYRQAPVKERELVAAISTSGGRTYDADSVKGRFTISRDYAKIPVFLQMNSLKPEDTAVYYCAAYSRTYDREFDYWGQGTQVTVSS | high polyreactivity |
| QVQLVESGGGLVQAGGSLRLSCAASGSTFVANVMGWYRQAPGKERELVAAINTNGGSTYYADSVKGRFTISRDNAKNTVYLQMNSLKPEDTAVYYCNKAWFRYWYGYWGQGTQVTVSS | low polyreactivity |
| QVQLVESGGGLVQAGGSLRLSCAASGSTFVDYALGWARQAPGKERELVAAISSSGGSTYYADSVKGRFTISRDTAKNTVYLQMNSLKPEDTAVYYCAARYDRSSKRNYWGQGTQVTVSS | low polyreactivity |
| QVQLVESGGGLVQAGGSLRLSCAASGSTFVDYAMGWYRQAPGKERELVAAMSSSGGSTYYADSVKGRFTISRDNAKNTVYLQMNSLKPEDTAVYYCAARYDRSSKRNYWGQGTQVTVSS | low polyreactivity |
| QVQLVESGGGLVQAGGSLRLSCAASGSTFVFYAMGWSREAPGKERELVAAITISGDITYYADSVKGRFTISRDNAKNTVYLQMNSLKPEDTAVYYWAVDGPIPDLHEYWGQGTQVTVSS | low polyreactivity |
| QVQLVESGGGLVQAGGSLRLSCAASGSTFVFYAMGWYRLAPGKDRELVAINSGGSTYYADSVKGRFTISRDNAKNTVYLQMNSLKPEDTAVYFCAKDPLRVWRFDYWGQGTQVTVSS | low polyreactivity |
| QVQLVESGGGLVQAGGSLRLSCAASGSTFVFYAMGWYRQAPGKERELVASISFRGGSTRYADSVKGRFTISRDNAKNTVYLQMNSLKPEDTAVYYCNARPFYRYYYWGQGTQVTVSS | high polyreactivity |

| Sequence | polyreactivity (PSR sort gate) |
| --- | --- |
| QVQLVESGGGLVQAGGSLRLSCAASGSTFVGNAMGWYRQAPGKERELVAGISSGGSSNYADSVKGRFTISRDNAKNTVYLQMNSLKREDTAVYYCNAVPGVGEMDYWGQGTQVTVSS | low polyreactivity |
| QVQLVESGGGLVQAGGSLRLSCAASGSTFVGYAMGWYRLAPGKEREFVAAITRGGSTNYADSVKGRFTISRDNAKNTVYLQMNSLKPEDTAVYYCAARDRREGFNFDYCGQGTQVTVSS | low polyreactivity |
| QVQLVESGGGLVQAGGSLRLSCAASGSTFVGYAMVWYRQAPGKERELVAAISRSGGSTYYADSVKGRFTISRDNAKNTVYLQMNSLKPEDTAVYYCAAGARAFDDDFWGQGTQVNVSS | low polyreactivity |
| QVQLVESGGGLVQAGGSLRLSCAASGSTFVHYAMGWYRQAPGKERELVADITTGDITNYADSVKGRFTISRDNAKNTVYLQMNSLKPEDTAVYYCAVDHQNSPFHVGRDEYWGQGTQVTVSS | low polyreactivity |
| QVQLVESGGGLVQAGGSLRLSCAASGSTFVIYAMGLYTQAPGKERELVAAISRRTGSTYYADSVKGRFTISRYNAKNTVYLQMNSLKPEDTAVYYCAADYRYYTKYYGYLTYYYWGQGTQVTVSS | high polyreactivity |
| QVQLVESGGGLVQAGGSLRLSCAASGSTFVIYGKGWYRQAPGKERELVASISGSGGSTFYADSVKGRFTISRDNAKITVYLEMNSRKPEDTAVYYCAAAVGVGRSGGTYDYWGQGTQVTVSS | low polyreactivity |
| QVQLVESGGGLVQAGGSLRLSCAASGSTFVKYDMGWYRQAPGKERELVAAITTTGGSTYYADSVKGRFTISRDNAKNTVYLQMNSLIPEDTAVYYCATLVSASRSRRFGYEYWGQGTQVTVSS | high polyreactivity |
| QVQLVESGGGLVQAGGSLRLSCAASGSTFVLYAMGWYRQAPGKERELVAAINSAGSTNYADSVKGRFTISRDNAKNTVYLQMNSLNPEDTAVYYCAAEYYYSYVDRTYYIYDYWGQGTQVTVSS | high polyreactivity |
| QVQLVESGGGLVQAGGSLRLSCAASGSTFVNNAMGWSREARGKERELVAAIRSSDGRTYYADSVKGRFTISRDKAKNTVYLQMNSLKPEDTAVDYCATAVGTKYRTRIFEYYYWGQGTQVTVSS | high polyreactivity |
| QVQLVESGGGLVQAGGSLRLSCAASGSTFVNNAMGWYRQAPGKERELVASITVGGSTYYADSVKGRFTISRDNAKNTVYLQMNSLKPEDTAVYYCNVQYSYYASDYDYWGQGTQVTVSS | low polyreactivity |
| QVQLVESGGGLVQAGGSLRLSCAASGSTFVNYAMGWYRQAPGKERELVAAITRSGGNTYYADSVKGRFTISRDNAKNTVYLQMNSLKPEDTAVYDCAASFKQDIWYYYWGQGTQVTVSS | high polyreactivity |
| QVQLVESGGGLVQAGGSLRLSCAASGSTFVPKDMGWNRQAPGKERELVAAISYSGGSTYYADSVKGRFTISRDNAKNTVYLQLNSLKPEDTAVDYCNAEGWYYLTEYGYWGQGTQVTVSS | low polyreactivity |
| QVQLVESGGGLVQAGGSLRLSCAASGSTFVPNAMGWYRQAPGKERELVAALTFSGGTTYYADSVKGRFTISRDNAKNTVYLQMNSLKPEGTAVYYCAADYFSNLWWSGHAWRYYYWGQGTQVTVSS | low polyreactivity |
| QVQLVESGGGLVQAGGSLRLSCAASGSTFVPNTMGWYRQAPGKERELVAAITYSGGSTYYADSVKGRFTISRDNAKNTVYLQMNSLKPEDTAVYYCAAEGTTWYYDMDYWGQGTQVTVSS | low polyreactivity |
| QVQLVESGGGLVQAGGSLRLSCAASGSTFVPYALGWYRQAPGKERELVAAITTSGGNTYYADSVKGRFTISRDNAKNTVYLQMNSLKPEDTAVYYCAADTFRRFDYWGQGTQVTVSS | low polyreactivity |
| QVQLVESGGGLVQAGGSLRLSCAASGSTFVPYAMGWSSQAPGKERELVADISWSGGSTYYADSVKVRFTISRDNAKNTVYLQMNSLKPEDTAVYYCAARSIYKSKYDYWGQGTQVTVSS | high polyreactivity |
| QVQLVESGGGLVQAGGSLRLSCAASGSTFVPYAMGWYRQAPGKERELVAAISGTGGRTSYADSVKGRFTISRDNAKNTVYLQMNSLKPEDTAVYYCAAADGIYARYFFSRFPRFDYWGQGTQVTVSS | low polyreactivity |
| QVQLVESGGGLVQAGGSLRLSCAASGSTFVPYAMGWYRQAPGKERELVAGITFSGGSTYYADSVKGRFTIPRDNAKNTVYLQMNSLKPEDTAVYYCARAGGYPLSRYGYWGQGTQVTVSS | high polyreactivity |
| QVQLVESGGGLVQAGGSLRLSCAASGSTFVPYAMGWYRQAPGKERELVAVITRGSTNYADSVKGRFTISRDNAKNTVYLQMNRLKPEDTAVYYCAVDVARGVLDYSFDSWGQGTQVTVSS | high polyreactivity |
| QVQLVESGGGLVQAGGSLRLSCAASGSTFVQYAMGWYRQAPGKERELVAAITSGGRTNYADSVKGRFTISRDNAKYTVYLQMNSLKPEDTAVYYCAARYGSNSPRGYEYYYWGQGTQVSVSS | low polyreactivity |
| QVQLVESGGGLVQAGGSLRLSCAASGSTFVQYAMGWYRQAPGKERELVAAITSGGRTNYADSVNGRFTISRDNAKNTVYLQMNSLKPEDTAVYYCAARYGSNSPRRYEYYYWGQGTQVTVSS | low polyreactivity |
